# Assay results reported in PMC7353701, “Molecular characterization and heterologous expression of two α-glucosidases from Metschnikowia spp, both producers of honey sugars” (Microbial Cell Factories, 2020).
# Substitutions are numbered along the chain they refer to.
# B1: Mg-αGlu (Metschnikowia gruessii) (protein)
# chain: MTDAIWWKDASVYQIWPASYKDSNGDGFGDIPGVISTLDYIKNLGVDVIWLSPMYDSPQDDMGYDVADYENVYPKYGTLEDMDTLISEVHARGMKLILDLVINHTSTAHKWFEESKSDKENPKRDWYIWKPARYDEDGNRHPPNNWQSYFSGSAWEYDENTDEYYLHLFAKSQPDLNWENDETRQAIYDSALTFWFEKGVDGFRIDTAGMYSKVQTFEDAPIVFPDLEWQPCTDFHQSGPRIHEFHKEMFEKVTSKYDAMTVGEVGHSSREDALKYVSAQEKEMNMMFLFDLVEVGSNPSDRFRYDGFKLTDFKQAVSNMSSFSEGTDAWSTCFFENHDQPRCITRFGNDSPEYLFRSGKMLATLLTSLTGTLFIYQGQEFGMTNVPLEWNIDEYKDINTVNYYQLYVEKNGEENVGELIKNINLVARDNARTPVQWDGTENGGFSTGQPWMRVNDNYQQVNAASQVNDPESLYNFYKKALEVRKEHKDVLIYGSLEIIDFDDERVFSFYKKSGDKTAYVVLNFTKDPIDFKPAVESELELVLTNEREIRDDVLSPYESRLYIVKN
# B2: Mr-αGlu (Metschnikowia reukaufii) (protein)
# chain: B1 chain with T233A, S300K, R304I, S318A
# Tests used:
# [1] = substrate: OC[C@H]1O[C@@](CO)(O[C@H]2O[C@H](CO)[C@@H](O)[C@H](O)[C@H]2O)[C@@H](O)[C@@H]1O; assay: initial rates, Michaelis-Menten fit; format: biochemical, Metschnikowia gruessii; details: 0-225 mM sucrose, standard assay 50 mM sodium phosphate pH 7.0, 30 °C
# [2] = substrate: OC[C@H]1O[C@@](CO)(O[C@H]2O[C@H](CO)[C@@H](O)[C@H](O)[C@H]2O)[C@@H](O)[C@@H]1O; assay: initial rates, Michaelis-Menten fit; format: biochemical, Metschnikowia reukaufii; details: 0-225 mM sucrose, standard assay 50 mM sodium phosphate pH 7.0, 30 °C
Protein,Km [1] [mM],kcat [1] [s⁻¹],kcat/Km [1] [M⁻¹ s⁻¹],Km [2] [mM],kcat [2] [s⁻¹],kcat/Km [2] [M⁻¹ s⁻¹]
B1,54.1 ± 5.8,270 ± 10.9,4900 ± 700,,,
B2,,,,64.9 ± 4.6,477 ± 13.7,7400 ± 700
